Patent US20070280950A1 (MEDICAL AND BIOLOGICAL LABORATORIES, published 2007)

What was measured:
CD51 = target: T1, CD51 (human, UniProt P06756 31-1048); assay: flow cytometry, PBMCs double-stained with antibody #33 plus secondary antibody and PE-labeled CD51 antibody
T1 construct: whole, on cells; Co-precipitated with CD61 by antibody #33 from THP-1 cells; ruled out as the antigen by double staining of PBMCs; also called CD51 (112 kDa)
Method: A flow cytometry was performed to determine which of CD51 and CD61, listed as candidate antigen molecules for antibody #33, is the antigen for antibody #33. After PBMCs were stained with antibody #33 and a secondary antibody, they were reacted with a PE-labeled CD51 antibody (BC) or a PE-labeled CD61 antibody (SZ21, BC) at 4° C. for 30 minutes and double-stained, after which flow cytometry was performed.

human CD61 = target: T2, human CD61 (human, UniProt P05106 27-788); assay: flow cytometry on human cultured cells, 1 µg/ml antibody, FITC anti-mouse IgG secondary; Molt-4 and HUVEC also reactive; antigen later identified as CD61
T2 construct: whole, on cells; Endogenous protein on human cells; In the immunoprecipitation it was solubilised from biotinylated THP-1 cell surfaces with NP-40 and came down together with CD51; also called integrin β3-subunit; integrin β3 chain
T2 sequence (P05106 27-788): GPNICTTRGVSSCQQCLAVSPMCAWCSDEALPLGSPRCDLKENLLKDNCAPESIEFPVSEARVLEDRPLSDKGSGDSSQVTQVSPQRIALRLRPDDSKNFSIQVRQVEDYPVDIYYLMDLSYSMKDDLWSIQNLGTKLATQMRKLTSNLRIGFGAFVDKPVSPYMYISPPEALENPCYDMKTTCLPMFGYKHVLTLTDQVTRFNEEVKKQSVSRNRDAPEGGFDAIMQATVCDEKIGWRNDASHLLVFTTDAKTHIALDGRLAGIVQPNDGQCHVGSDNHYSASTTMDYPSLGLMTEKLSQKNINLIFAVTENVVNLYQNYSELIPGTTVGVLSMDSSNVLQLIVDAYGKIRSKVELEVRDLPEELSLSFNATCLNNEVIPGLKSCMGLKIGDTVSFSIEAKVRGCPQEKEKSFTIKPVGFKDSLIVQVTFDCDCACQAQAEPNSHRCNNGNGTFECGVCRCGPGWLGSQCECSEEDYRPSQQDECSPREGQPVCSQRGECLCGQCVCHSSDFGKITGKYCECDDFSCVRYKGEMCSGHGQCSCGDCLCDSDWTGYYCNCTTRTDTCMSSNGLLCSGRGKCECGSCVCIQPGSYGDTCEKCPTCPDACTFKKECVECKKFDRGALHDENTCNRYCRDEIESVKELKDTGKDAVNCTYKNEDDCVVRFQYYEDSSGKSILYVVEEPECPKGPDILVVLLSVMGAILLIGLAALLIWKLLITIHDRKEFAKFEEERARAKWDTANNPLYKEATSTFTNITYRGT
Method: To identify the antigen of antibody #33, its reactivity to various human cultured cells was examined by flow cytometry. THP-1 activated macrophage-like cells, HPB-ALL, Jurkat, PM-1, Molt-4, KM-3, HL-60, K562, THP-1, U937, 293T, and HUVEC were used as these cells. The THP-1 activated macrophage-like cells were prepared by culturing and differentiating for two days the THP-1 human monocyte-like cell line in RPMI (Sigma) including Streptomycin/Penicillin (Gibco BRL) and 10% FCS (Equitech) into which phorbol ester (PMA) (Sigma) has been added to a final concentration of 5 ng/ml.
Blocking with 1 mg/ml human IgG (Sigma) in FCS was performed for the various human cultured cells (1.0×10⁵ cells) and cells were reacted in a PBS solution comprising 2% FCS (Equitech) antibody #33 at a final concentration of 1 μg/ml at 4° C. for 30 minutes. After washing twice with PBS comprising 2% FCS (Equitech), cells were further reacted with an FITC-labeled anti-mouse IgG secondary antibody (MBL) at 4° C. for 30 minutes. Samples were further washed twice with PBS containing 2% FCS (Equitech) and analyzed with a flow cytometer (ALTRA BC).

T1 sequence (P06756 31-1048): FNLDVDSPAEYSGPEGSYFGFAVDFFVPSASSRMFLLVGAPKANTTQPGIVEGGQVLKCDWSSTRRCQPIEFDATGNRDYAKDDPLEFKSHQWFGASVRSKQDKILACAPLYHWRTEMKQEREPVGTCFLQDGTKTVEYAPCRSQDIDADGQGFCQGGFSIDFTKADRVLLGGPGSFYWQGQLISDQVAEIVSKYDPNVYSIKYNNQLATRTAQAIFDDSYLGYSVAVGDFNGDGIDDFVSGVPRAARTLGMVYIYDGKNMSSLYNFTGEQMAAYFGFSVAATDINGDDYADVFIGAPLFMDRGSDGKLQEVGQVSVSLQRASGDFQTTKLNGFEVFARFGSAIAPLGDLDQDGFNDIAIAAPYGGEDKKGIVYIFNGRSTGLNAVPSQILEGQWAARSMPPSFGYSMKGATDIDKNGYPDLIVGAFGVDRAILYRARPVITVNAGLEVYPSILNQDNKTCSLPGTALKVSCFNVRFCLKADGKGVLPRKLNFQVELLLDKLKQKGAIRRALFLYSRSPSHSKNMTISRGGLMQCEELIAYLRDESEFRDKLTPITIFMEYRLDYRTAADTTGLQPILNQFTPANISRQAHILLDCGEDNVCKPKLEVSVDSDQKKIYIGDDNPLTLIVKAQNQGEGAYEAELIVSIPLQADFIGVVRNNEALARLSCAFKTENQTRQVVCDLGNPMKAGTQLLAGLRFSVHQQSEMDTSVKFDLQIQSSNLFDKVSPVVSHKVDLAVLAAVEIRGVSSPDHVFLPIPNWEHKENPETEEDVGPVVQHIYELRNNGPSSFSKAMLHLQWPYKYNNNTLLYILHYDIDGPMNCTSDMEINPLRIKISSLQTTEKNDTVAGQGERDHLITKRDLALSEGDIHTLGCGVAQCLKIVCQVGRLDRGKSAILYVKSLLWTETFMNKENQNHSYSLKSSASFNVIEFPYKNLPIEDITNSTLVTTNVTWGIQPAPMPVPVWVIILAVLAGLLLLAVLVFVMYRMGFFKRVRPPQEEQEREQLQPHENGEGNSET

binding result (CD51): no binding | binding result (human CD61): binds
B1: antibody #33 (antibody, IgG2a, V domains shown)
VH: EVQLLQSGPELVKPGASMKISCKASGYSFTGYTMNWVKQSHGKNLEWIGLINPYSGVTTYNQRFKGKATLTVDKSSSTAYMELLSLTSEDSAVYYCATRGALGQAYYFDYWGQGTTLTVSS
VL: QIVLTQSPVIMSASPGERVTLTCSASSSVNYMHWYQQKSGTSPKRWIYDTSKLASGVPPRFSGSGFGTSYSLTITNMEAEDAATYYCQQWSSKPPTFGFGTKLELQR
notes: also called monoclonal antibody #33; mouse anti-human CD61 antibody
